Measured values from US20060094663A1 (VALORISATION RECHERCHE SOCIETE EN COMMANDITE, published 2006).
Each block holds one binder with its values, some of them ahead of it. Where no end group is shown, it is not given here. [ ]: non-standard residue; d: D form. dOrn = NCCC[C@@H](N)C(=O)O

Columns and labels:
Experiment in all cases: cell-based or functional assay
[1] = target: T1, IL-1R/IL-1RacP receptor on human cells (human, UniProt P14778 18-569; Q9NPH3 21-570)
T1 sequence (looked up) 1: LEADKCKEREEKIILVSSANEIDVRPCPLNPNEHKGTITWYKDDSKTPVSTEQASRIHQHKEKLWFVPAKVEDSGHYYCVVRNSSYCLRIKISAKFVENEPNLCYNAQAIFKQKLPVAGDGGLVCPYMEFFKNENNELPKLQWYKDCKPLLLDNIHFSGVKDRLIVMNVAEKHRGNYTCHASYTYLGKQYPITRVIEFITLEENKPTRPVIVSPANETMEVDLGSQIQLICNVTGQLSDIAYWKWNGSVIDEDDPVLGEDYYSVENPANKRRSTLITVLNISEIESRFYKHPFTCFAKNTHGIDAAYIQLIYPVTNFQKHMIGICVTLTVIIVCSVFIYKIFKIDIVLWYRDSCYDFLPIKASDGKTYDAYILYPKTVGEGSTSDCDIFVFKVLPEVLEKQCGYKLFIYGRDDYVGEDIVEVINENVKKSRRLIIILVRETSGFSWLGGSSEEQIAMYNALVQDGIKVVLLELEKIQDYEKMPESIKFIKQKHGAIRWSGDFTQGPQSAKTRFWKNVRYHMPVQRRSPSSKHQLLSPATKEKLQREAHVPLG
T1 sequence (looked up) 2: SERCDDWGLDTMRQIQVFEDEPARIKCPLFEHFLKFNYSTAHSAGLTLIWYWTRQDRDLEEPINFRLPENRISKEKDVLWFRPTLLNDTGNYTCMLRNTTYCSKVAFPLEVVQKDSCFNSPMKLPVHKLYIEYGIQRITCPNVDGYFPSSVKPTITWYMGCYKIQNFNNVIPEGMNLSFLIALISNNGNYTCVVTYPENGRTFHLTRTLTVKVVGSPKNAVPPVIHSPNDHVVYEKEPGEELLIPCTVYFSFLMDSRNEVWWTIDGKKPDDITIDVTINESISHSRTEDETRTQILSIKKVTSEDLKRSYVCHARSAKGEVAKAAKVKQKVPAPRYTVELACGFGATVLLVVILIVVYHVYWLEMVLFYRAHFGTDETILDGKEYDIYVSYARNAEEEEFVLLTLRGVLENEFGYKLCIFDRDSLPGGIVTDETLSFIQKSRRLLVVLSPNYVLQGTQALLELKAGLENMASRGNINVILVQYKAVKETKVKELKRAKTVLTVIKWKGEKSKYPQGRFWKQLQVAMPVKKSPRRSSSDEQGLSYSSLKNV

[2] = target: T1, IL-1R/IL-1RacP receptor on human cells; remark: listed apart in the source
[3] = target: IL-1R/IL-1RacP receptor (cells or tissue whose species is not stated)
[4] = target: T1, IL-1R/IL-1RacP receptor on human cells; remark: listed apart in the source
[5] = target: T2, IL-1R/IL-1RacP receptor on porcine cells and vessels (porcine (piglet), UniProt A0A5G2QSI4 18-572)
[6] = target: T2, IL-1R/IL-1RacP receptor on porcine …; remark: listed apart in the source

T2 sequence (A0A5G2QSI4 entry or part of it): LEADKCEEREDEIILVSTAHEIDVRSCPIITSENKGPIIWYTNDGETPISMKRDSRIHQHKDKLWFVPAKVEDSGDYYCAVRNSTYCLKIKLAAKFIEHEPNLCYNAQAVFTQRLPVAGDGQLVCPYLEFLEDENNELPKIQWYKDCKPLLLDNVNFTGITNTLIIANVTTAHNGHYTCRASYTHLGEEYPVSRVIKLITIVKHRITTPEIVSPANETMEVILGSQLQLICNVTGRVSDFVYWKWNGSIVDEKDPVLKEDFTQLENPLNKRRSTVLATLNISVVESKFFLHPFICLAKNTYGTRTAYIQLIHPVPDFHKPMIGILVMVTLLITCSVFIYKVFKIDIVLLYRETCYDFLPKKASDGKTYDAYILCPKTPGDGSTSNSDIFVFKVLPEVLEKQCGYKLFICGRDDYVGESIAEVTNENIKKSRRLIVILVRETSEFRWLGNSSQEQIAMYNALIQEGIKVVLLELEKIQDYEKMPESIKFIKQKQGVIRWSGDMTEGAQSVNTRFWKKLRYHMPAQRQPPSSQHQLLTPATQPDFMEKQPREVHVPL

Binder: [dOrn][dY][dT][dP][dE][dL][dA] [API-101.115]
- Emax (%), IL-1β-induced proliferation in TF-1 cells (human) [1]: 100%
- IC50, IL-1β-induced proliferation in TF-1 cells (human) [1]: ~0.001 nM

Binder: [dOrn][dY][dT][dP][dE][dL] [API-101.126]
- Emax (%), IL-1β-induced TF-1 proliferation [2]: 0%

Binder: [dK][dY][dT][dP][dE][dL] [API-101.133]
- Emax (%), IL-1β-induced TF-1 proliferation [2]: < 10%

Binder: [dR][dY][dT][dP][dD][dL][dA] [API-101.117]
- Emax (%), IL-1β-induced PGE2 synthesis in endothelial cells (porcine) [5]: 100%
- IC50, IL-1β-induced PGE2 synthesis in endothelial cells (porcine) [5]: 0.01 nM

Binder: [dK][dY][dT][dP][dE][dL][dA] [API-101.114]
- Emax (%), IL-1β-induced PGE2 synthesis in endothelial cells (porcine) [5]: 50%
- IC50, IL-1β-induced PGE2 synthesis in endothelial cells (porcine) [5]: 0.002 nM

Binder: [dR][dW][dT][dP][dE][dL] [API-101.128]
- Emax (%), IL-1β-induced TF-1 proliferation [2]: 100%
- IC50, IL-1β-induced TF-1 proliferation [2]: 3 nM

Results, then the binder that gave them:

- Emax (%), IL-1β-induced TF-1 proliferation [2]: < 30%
Binder: [dR][dF][dV][dP][dE][dL][dA] [API-101.127]

- IC50 (FIG. 15; cell type not given) [3]: 0.0012 nM
- IC50, IL-1-induced PGE2 synthesis, human WI-38 cells [4]: 0.1 pM
Binder: [dR][dY][dT][dP][dE][dL][dA] [API-101.107]

- Emax (%), IL-1β-induced proliferation in TF-1 cells (human) [1]: 75%
- IC50, IL-1β-induced proliferation in TF-1 cells (human) [1]: 0.5 nM
- Emax (%), IL-1β-induced PGE2 synthesis in endothelial cells (porcine) [5]: 45%
- IC50, IL-1β-induced PGE2 synthesis in endothelial cells (porcine) [5]: 0.013 nM
Binder: [dR][dW][dT][dP][dE][dL][dA] [API-101.116]

- Emax (%), IL-1β-induced TF-1 proliferation [2]: 50%
- IC50, IL-1β-induced TF-1 proliferation [2]: 400 nM
Binder: [dR][dY][dT][dP][dE][dV] [API-101.129]

- IC50, IL-1-induced PGE2 synthesis, human WI-38 cells [4]: 0.05 pM
Binder: [dR][dY][dT][dV][dQ][dL][dA] [API-101.103]

- IC50, IL-1-induced PGE2 synthesis, WI-38 cells [4]: 790 nM
- IC50, effect of IL-1β (10 ng/ml) on proliferation of A549 carcinoma cells, 3H-thymidine [4]: 1000 nM
- percent of IL-1β-induced proliferation of WI-38 human lung fibroblasts abolished [4]: 65%
- IC50, IL-1-induced PGE2 synthesis, endothelial cells [6]: 220 nM
- IC50, IL-1-induced PGE2 synthesis, microvascular endothelial cells [6]: 1000 nM
- IC50, IL-1β-induced vasodilation of piglet pial vessels (ex vivo) [6]: 182 nM
Binder: [dA][dP][dR][dY][dT][dV][dE][dL][dA] [API-101]

- Emax (%), IL-1β-induced PGE2 synthesis in endothelial cells (porcine) [5]: 80%
- IC50, IL-1β-induced PGE2 synthesis in endothelial cells (porcine) [5]: 0.0074 nM
Binder: [dR][dY][dT][dP][dE][dL] [API-101.113]

- percent of IL-1β-induced proliferation of WI-38 human lung fibroblasts abolished [4]: 100%
Binder: [dY][dT][dV][dE][dL][dA] [API-101.11]

- IC50, IL-1-induced PGE2 synthesis, WI-38 cells [4]: 0.2 nM
- percent of IL-1β-induced proliferation of WI-38 human lung fibroblasts abolished [4]: 100%
- IC50, IL-1-induced PGE2 synthesis, endothelial cells [6]: 1.2 nM
- IC50, IL-1-induced vasodilation (ex vivo vasomotricity, protocol of Example 1) [6]: 10.8 nM
- fold potency against API-101, IL-1-induced vasodilation (ex vivo) [6]: 100 fold
Binder: [dR][dY][dT][dV][dE][dL][dA] [API-101.10]
